Here are results for 2 molecules from PMC8840469, “Directed Evolution of a Nonheme Diiron N-oxygenase AzoC for Improving Its Catalytic Efficiency toward Nitrogen Heterocycle Substrates” (Molecules, 2022).

For one data set, the system named is T1, AzoC.
T1 construct: nonheme diiron enzyme
Put plainly: HPLC, initial velocity, Michaelis-Menten fit. It is filed as biochemical, Streptomyces chattanoogensis. The following applies: 30 °C, 1 h; 5.2 μM enzyme; substrate 0.05-2 mM; general in vitro reaction (not restated for kinetics): NADH 0.1 mM, PMS 0.75 mM, 20 mM HEPES pH 7.5, but 3 μM enzyme; read-out: Substrate: 2-methoxypyrimidin-5-amine / Km. The text has this:
(§1) HPLC, initial velocity, Michaelis-Menten fit on AzoC

The subject of a further data set is T2, COc1ncc(N)cn1.
T2 construct: nonheme diiron enzyme
Put plainly: HPLC, initial velocity, Michaelis-Menten fit. It is filed as biochemical, Streptomyces chattanoogensis. Particulars: 30 °C, 1 h, 5.2 μM enzyme, substrate 0.05-2 mM, general in vitro reaction (not restated for kinetics): NADH 0.1 mM, PMS 0.75 mM, 20 mM HEPES pH 7.5.
Description: as §1

Consider `COc1ncc(N)cn1` [compound 3, 2-methoxypyrimidin-5-amine], for which, in the data set with AzoC, the Km is 510 ± 59 µM.
Consider AzoC (Streptomyces chattanoogensis), for which, in the data set with COc1ncc(N)cn1, the Km amounted to 650 ± 120 µM; the kcat – broadly, the maximal rate divided by the concentration of active sites – amounted to 0.018 ± 0.0014 s⁻¹; the kcat/Km (commonly the second-order rate constant that governs catalysis at low substrate concentration) turned out to be 27.7 M⁻¹ s⁻¹.
